The values that follow come from patent publication US8092794B2, “Pharmaceutical compositions comprising SODs and prolamine based peptide fragments” (Isocell Pharma S.A., priority 2006, dated 2012).

The nature of data set [1]: NBT photoreduction on NATIVE-PAGE electrophoresis (anti-radical / antioxidant activity of SODs). The data set is classed as biochemical. The note with it: currently used bacterial host strains, rare codons. Here is the method:
The expression products of the first variants for each kind of constructions were used to validate the anti-radical activity of the various biosynthetic SODs obtained. These activities were verified by the reduction of NBT on native PAGE.
The melon pseudo cytosolic Cu—ZnSOD and the human or tomato cytosolic Cu—ZnSOD as well as their equivalents bearing the two different gliadin peptides are analysed for their antiradical activities. These activities are verified according to the NBT photoreduction on NATIVE-PAGE electrophoresis (Beauchamps and Fridovitch, 1971).
The Cucumis melo recombinant SOD as well as its equivalents bearing the gliadin peptide (Gli-SOD) were produced and purified according to a multiple step denaturation/renaturation protocol. […] The potentiality of both recombinant proteins (Cucumis melo SOD and Gli-SOD) to reduce NBT on NATIVE-PAGE electrophoresis (NBT photoreduction, Beauchamps and Fridovitch, 1971) was evaluated and compared with that of the natural Cucumis melo extract.
The migration profile and the NBT reduction obtained on Native-PAGE electrophoresis corroborate the correct and efficient refolding of both recombinant proteins, SOD or Gli-SOD (4 000-10 000 UNBT/mg protein) which is a mandatory event to display their antioxidant activity.

The test system of data set [2] is HT-29 cell line. The data set can be described thus: HT-29 cell proliferation (cell count, GUAVA PC Viacount). The data set is classed as cell-based, human. The note with it: for toxic effect on HT-29 proliferation curves: 10 units, sampled over 72 hours; for dose that does not modify growth of the HT-29 cell line: dose range 0 to 50 NBT units. Here is the method: The human colon carcinoma cell line HT-29 (ATCC HTB-38) is grown in 10% foetal bovine serum (FBS) in Dulbecco's modified Eagle's medium (D-MEM) supplemented with GlutaMAX-1, 4.5 g/L D-Glucose, sodium pyruvate and 100 unit/ml of penicillin/streptomycin. For each experiment (n=4) approximately 2×10^4 cells/well were incubated for 24 hours at 37° C. in 5% CO2 atmosphere. Prior to any experiment, existing culture medium was replaced by a fresh one.
After the incubation period, cell monolayers were detached with a PBS solution containing 0.05% trypsin and 0.5 mM EDTA, washed in calcium-free and magnesium-free phosphate-buffered saline solution (PBS) and collected by centrifugation. Cells were then counted in a hemocytometer by using the GUAVA PC Viacount Flex Kit and reported in cells/ml to estimate cellular proliferation.
In the current experiment, cultures are periodically sampled over a 72 hour period to assess the proliferation rate and the viability of HT-29 cells after exposure or not to various components, (a) 10 μM of gliadin peptide 982 (Triticum vulgare, QQPYPQPF, SEQ. ID No. 01) representing at least 100 times less than the concentration previously related to induce a significant enterocyte agglutination (De Vicenzi. M et al. 1997 Toxicology, vol 120 p 207) or enterocyte apoptosis (Giovannini et al. 2000, Toxicology, vol 145 p 63).
For recombinant protein dose-response experiments, HT-29 cells were incubated with increasing concentrations of recombinant SOD or Gli-SOD (0 to 50 NBT units) for a further 48 hours.
Cultures were periodically sampled over 72 hours to assess the proliferation rate and the viability of HT-29 cells after exposure or not to various components, (a) 10 units of recombinant SOD or (b) 10 units of recombinant SOD associated with 10 μM of peptide 982 or finally (c) 10 units of recombinant Gli-SOD (SOD physically linked to gliadin peptide 982).

The subject of data set [3] is foot oedema induced by carrageenan or adriamycin. The settings on record: cited from earlier work; for anti-inflammatory activity in rats: studies in rats.
For data set [4], the system named is HT-29 cells. Briefly: Basal apoptosis of HT-29 cells, annexin V test (GUAVA Nexin Kit). The settings on record: 10 units, 24 hours; for rate of basal apoptosis (annexin V positive cells): basal 20% (20.5). The data set is classed as cell-based, human. Here is the method:
(§1) Apoptosis was analyzed in HT-29 cell line using the GUAVA Nexin Kit which discriminates between apoptotic and non apoptotic cells. This method utilizes annexin V Phycoerythrin to detect phopshatidylserine (PS) (Martin et al. 1995, J Exp Med vol 182 p 1545) on the external membrane of apoptotic cells.
(§2) After 24 hours, cell monolayers are detached with a PBS solution containing trypsin 0.05% and EDTA 0.5 mM, washed in calcium-free and magnesium-free phosphate-buffered saline solution (PBS) and apoptotic cell staining is performed and analysed with a GUAVA PCA system.
(§3) For the basal apoptotic inhibition (part A), the culture medium was replaced with fresh culture medium containing or absent 10 units of both recombinant SODs (NBT units). For the Orexin induced-apoptotic inhibition (part B), the culture medium was replaced with fresh culture medium containing 1 μM of orexin and/or 50 units of each recombinant SOD (NBT units). Results are expressed as the percentage of apoptotic annexin V-PE positive cells and are the means of four points.

In data set [5] the test system is HT-29 cells. The data set can be described thus: Orexin-induced apoptosis of HT-29 cells, annexin V test. The note with it: 50 units + 1 μM orexin; for rate of orexin-induced apoptosis: orexin alone 40%. The data set is classed as cell-based, human. Here is the method: as §1, §2, §3
In a second experiment, the potent anti-apoptotic effect of the recombinant SOD or Gli-SOD was confirmed when apoptosis was induced via orexin supplementation to the HT-29 cells culture medium. In this case, the rate of HT-29 cell going into apoptosis may be enhanced from 20% evaluated for the basal level to 40% by addition of 1 μM of Orexin in the culture medium.

Data set [6] deals with HT-29 cells. Briefly: Xanthine/xanthine oxidase (X/XO)-induced apoptosis of HT-29 cells, annexin V test. The settings on record: 50 units, 10mU of X/XO complex. The data set is classed as cell-based, human. Here is the method: as §1, §2
In this third experiment, tests of the potent anti-apoptotic effect of the recombinant SOD or Gli-SOD according to the invention on the possible Fas/FasL pathway via Xanthine/xanthine oxidase induction in the HT-29 cells culture medium were carried out.
In this case, the rate of HT-29 cell going into apoptosis may be enhanced from 20% evaluated for the basal level to 30% by addition of 10mU of X/XO complex in the culture medium. Addition of 50 units of recombinant melon SOD or again 50 units of recombinant Gli-SOD to the culture medium, prevented the X/XO-induced apoptotic pathway in the HT-29 cells respectively by 71% and 86%.

Data set [7] concerns HT-29 cells. Briefly: Binding of SOD or Gli-SOD to HT-29 cells, FITC immunohistochemistry with EP-1669. Type of data set: cell-based, human. The note with it: 50 units, 24 hours. Here is the method: For each experiment (n=4), approximately 15×10^3 cells/lamella layer were incubated for 24 hours at 37° C. in 5% CO2 atmosphere. Prior to any experiment, existing culture medium was replaced by a fresh one.
The cell monolayer was then incubated in a fresh medium with or without 50 units of SOD or Gli-SOD for a further 24 hours, washed in calcium-free and magnesium-free phosphate-buffered saline solution (PBS) and then analyzed by immunohistochemistry. Binding of Gli-SOD to HT-29 cells was analyzed using the EP-1669 as a first antibody (rabbit IgG anti-SOD, dilution 1/2000°) for 30 minutes followed by a second FITC-coupled antibody for further 30 minutes (goat anti-rabbit antibody, dilution 1/100). This method was chosen rather than flow cytometry because the latter technique requires that cells be harvested by trypsin treatment and collected prior to analysis, and such treatment would likely have negatively impacted the interaction between the Gli-SOD molecules and cell surfaces.

With “Human CuZn-SOD: recombinant human cytosolic CuZn-SOD expressed in bacteria”, the “activity of biosynthetic SOD expressed in the applicant's bacterial system” value in data set [1] was “functional”.

On to “QQPYPQPQPF (Triticum vulgare) [peptide 982, 10 amino acids peptide of A-gliadin, Triticum vulgare]”, for which, in data set [2] (10 μM peptide, 24 hours of culture), the “effect on HT-29 cell line proliferation at 24 hours” value was “a major effect on HT-29 cell line proliferation, but exclusively at 24 hours of culture”. Further, the “effect on HT-29 proliferation after 48 hours” value in data set [2] (10 μM peptide, 48 hours) is on record as “the proliferation returns to its basal level”.

As for “bovine CuZn-SODs: bovine CuZn superoxide dismutase”, the “anti-inflammatory activity after oral administration” value in data set [3] (administered orally, using liposomes or ceramides, rat leg oedema induced by carrageenan) was “reduction of rat leg oedema induced by carrageenan”. In addition, the “anti-inflammatory activity in rats” value in data set [3] was “such an anti-inflammatory activity”.

Take “homologous rat CuZn-SOD: rat CuZn superoxide dismutase”: the “anti-inflammatory activity in rats” value in data set [3] was “no anti-inflammatory activity”.

B1: human Mn-SOD: human manganese superoxide dismutase (protein, UniProt P04179 25-222, looked up)
Superoxide dismutase [Mn], …: KHSLPDLPYDYGALEPHINAQIMQLHHSKHHAAYVNNLNVTEEKYQEALAKGDVTAQIALQPALKFNGGGHINHSIFWTNLSPNGGGEPKGELLEAIKRDFGSFDKFKEKLTAASVGVQGSGWGWLGFNKERGHLQIAACPNQDPLQGTTGLIPLLGIDVWEHAYYLQYKNVRPDYLKAIWNVINWENVTERYMACKK
With B1, the “anti-inflammatory activity in rats” value in data set [3] is listed as “no anti-inflammatory activity”.

B2: recombinant Gli-SOD: recombinant melon CuZn SOD fused at its N-terminal part to A-gliadin peptide QQPYPQPQPF (peptide 982) (protein)
chain: QQPYPQPQPFMVKAVAVLKGTSDVEGVVTLTQEDDGPTSVNVRITGLTPGPHGFHLHEFGDTTNGCISTGAHFNPNKLTHGAPEDEIRHAGDLGNIIANADGVAEATIVDNQIPLSGPNSVVGRAFVVHELADDLGKGGHELSLTTGNAGGRLACGVVGLTPV
modifications: Cucumis melo
Turning to B2, in data set [2] (10 units SOD coupled to or associated with 10 μM peptide 982), the “"peptide effect" on HT-29 proliferation at 24 hours” value was “no “peptide effect” at 24 hours of culture”. Further, the “toxic effect on HT-29 proliferation curves” value in data set [2] was “neither SOD nor Gli-SOD exert any toxic effect”. In data set [2] (48 hours), the “dose that does not modify growth of the HT-29 cell line” value is on record as 5 units. Also, in data set [4], the “inhibition of basal apoptosis” value stood at 18.1% and the “rate of basal apoptosis (annexin V positive cells)” value is recorded as 16.8%. For the same molecule, in data set [5], the “inhibition of orexin-induced apoptosis” value is 54.7% and the “rate of orexin-induced apoptosis” value is listed as 28.7%. The “prevention of X/XO-induced apoptotic pathway” value in data set [6] amounted to 86%. Also, in data set [7], the “presence of SOD in the vicinity of the cells (FITC fluorescence)” value was “apparently to a greater extent”.

B3: biosynthetic tomato cytosolic SODs: recombinant Lycopersicon esculentum cytosolic CuZn-SOD expressed in bacteria (protein, listed as Lycopersicon esculentum)
chain: MVKAVAVLNSSEGVSGTILFTQDGDAPTTVNGNISGLKPGLHGFHVHALGDTTNGCMSTGPHYNPAGKEHGAPEDEVRHAGDLGNITVGEDGTASFTITDKQIPLTGPQSIIGRAVVVHADPDDLGKGGHELSKSTGNAGGRIACGIIGLQG
Take B3: the “activity of biosynthetic SOD expressed in the applicant's bacterial system” value in data set [1] is recorded as “a lot less active”.

B4: recombinant SOD: recombinant Cucumis melo CuZn superoxide dismutase (pseudo-cytosolic form) expressed in E. coli, His-tag cleaved, refolded (protein)
chain: MVKAVAVLKGTSDVEGVVTLTQEDDGPTSVNVRITGLTPGPHGFHLHEFGDTTNGCISTGAHFNPNKLTHGAPEDEIRHAGDLGNIIANADGVAEATIVDNQIPLSGPNSVVGRAFVVHELADDLGKGGHELSLTTGNAGGRLACGVVGLTPV
modifications: Cucumis melo
As to B4, the “toxic effect on HT-29 proliferation curves” value in data set [2] is listed as “neither SOD nor Gli-SOD exert any toxic effect”. Further, the “dose that does not modify growth of the HT-29 cell line” value in data set [2] (48 hours) amounted to 10 units. Also, in data set [4], the “inhibition of basal apoptosis” value came out at 12.2% and the “rate of basal apoptosis (annexin V positive cells)” value came to 18%. In data set [5], the “inhibition of orexin-induced apoptosis” value worked out at 26% and the “rate of orexin-induced apoptosis” value is given as 34.4%. Besides, in data set [6], the “prevention of X/XO-induced apoptotic pathway” value was 71%. Also, in data set [7], the “presence of SOD in the vicinity of the cells (FITC fluorescence)” value is “clearly visible”.

B5: yeast CuZn-SODs: yeast CuZn superoxide dismutase (protein, UniProt P00445 2-154, looked up)
Superoxide dismutase [Cu-Zn]: VQAVAVLKGDAGVSGVVKFEQASESEPTTVSYEIAGNSPNAERGFHIHEFGDATNGCVSAGPHFNPFKKTHGAPTDEVRHVGDMGNVKTDENGVAKGSFKDSLIKLIGPTSVVGRSVVIHAGQDDLGKGDTEESLKTGNAGPRPACGVIGLTN
B5: in data set [3], the “anti-inflammatory activity in rats” value is reported as “pro-inflammatory activity”.
